Drawing on patent US20240190985A1, this text covers Kd for 3 substances.

In experiment [1] the target is SUMO-CD99 fusion protein (SUMO fused with the extracellular domain of CD99, residues 23-122) (human) (UniProt P14209). The experiment is described as follows: apparent affinity to the recombinant ECD of CD99; method not given, value compared with the bead-based values of FIG. 1F.
Experiment [2] has as its target CD99 endogenously expressed on cells (Jurkat, KOPT-K1) (UniProt P14209). As to the kind of experiment: cell binding; apparent KD; nM Fv; avid.
Experiment [3] shares this target. The experiment is described as follows: cell binding; apparent KD; nM molecule; avid.

Sequence of CD99 endogenously expressed on cells (Jurkat, KOPT-K1) (P14209 23-185): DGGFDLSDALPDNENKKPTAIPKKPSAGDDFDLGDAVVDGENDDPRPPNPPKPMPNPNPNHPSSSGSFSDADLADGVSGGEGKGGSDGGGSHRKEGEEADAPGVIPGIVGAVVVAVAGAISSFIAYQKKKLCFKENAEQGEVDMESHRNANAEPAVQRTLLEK
Sequence of SUMO-CD99 fusion protein (SUMO fused with the extracellular domain of CD99, residues 23-122) (human) (P14209 23-122): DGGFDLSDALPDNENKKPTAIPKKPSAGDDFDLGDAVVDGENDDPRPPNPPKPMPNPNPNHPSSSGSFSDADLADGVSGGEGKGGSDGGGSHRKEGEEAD

Regarding “anti-CD99 mouse IgM, HO36-1.1 (ab212605, Abcam) (antibody)”, in experiment [1], the Kd was determined as 226 nM.
With “bivalent SAV-10A1 Fab complex (A2D2 streptavidin with biotinylated 10A1 Fab) (from UniProt P22629 37-163; P22629 37-163)”, the Kd in experiment [2] is 5.2 nM; in experiment [3], 2.6 nM.
Regarding “trivalent SAV-10A1 Fab complex (A3D1 streptavidin with biotinylated 10A1 Fab) (from UniProt P22629 37-163; P22629 37-163)”, the Kd worked out at 3.9 nM in experiment [2] and 1.3 nM in experiment [3].
